Measured values reported in article PMC10259393, “The structural basis of the multi-step allosteric activation of Aurora B kinase” (eLife, 2023).
One block for each molecule: values may come before it. Non-standard residues stand in square brackets, D forms with d. pS = N[C@@H](COP(=O)(O)O)C(=O)O

Columns and labels:
[1] = molecular target: IN-box (C-terminal part of INCENP) IN-box, 790-856; assay: mass photometry at 10 nM complex; details: reference: [Aurora B/IN-box]all-P, as purified; sites T248,S849,S850
[2] = molecular target: T1, Aurora B (59-361 aa) from X. laevis, dephosphorylated, of the [Aurora B/IN-box]^IN-ΔC construct (X. laevis, UniProt Q6DE08 59-361); assay: co-purification; purified complex after ligation with the synthetic peptide: Superdex S200 16/60, then Ni column by the 6xHis of the ligated IN-box, eluted with imidazole; details: both partners purified
T1 construct: Aurora B kinase, Xenopus laevis, residues 59-361; Thr248 not phosphorylated; also called Aurora B of [Aurora B/IN-box]^IN-P; not shown: 6xHis, N-terminal, cleaved; GB1 domain of streptococcal protein G, N-terminal, cleaved

[3] = molecular target: T2, Aurora B (59-361 aa) from X. laevis, phosphorylated at Thr248, of the [Aurora B/IN-box]^IN-ΔC construct (X. laevis, UniProt Q6DE08 59-361, phosphothreonine at 248); assay: as above; details: both partners purified
T2 construct: Aurora B kinase, Xenopus laevis, residues 59-361; also called Aurora B of [Aurora B/IN-box]^loop-P; not shown: 6xHis, N-terminal, cleaved; GB1 domain of streptococcal protein G, N-terminal, cleaved

other: complex molecular weight [1]: same; reference ~44
Molecule: Aurora B 60-361 [Aurora B/IN-box]no-P, λ-phosphatase treated

binding result [2]: binds
B1: Semisynthetic IN-box (790-858, Phe845Cys) phosphorylated at Ser849 and Ser850 with C-terminal 6xHis, as in [Aurora B/IN-box]^IN-P (domain or fragment, X. laevis)
chain: DESQPRKPIPAWASGNLLTQAIRQQYYKPIDVDRMYGTIDSPKLEELFNKSKPRYCKRT[pS][pS]AVWHSPPL-{H2N-H2N-H2N-H2N-H2N-H2N}
notes: INCENP, Xenopus laevis, IN-box residues 790-844; synthetic peptide, IN-box residues 845-858 of X. laevis INCENP with Cys in place of Phe845 (scar of the ligation), both serines of the TSS motif phosphorylated; also called IN-box of [Aurora B/IN-box]^IN-P; IN-box^Phe845Cys; source: IN-box^ΔC (E. coli, purified, C-terminal thioester) ligated with a synthetic phosphopeptide; purified (Superdex S200, …)

binding result [3]: binds
B2: Semisynthetic IN-box (790-858, Phe845Cys) with unphosphorylated TSS motif and C-terminal 6xHis, as in [Aurora B/IN-box]^loop-P (domain or fragment, X. laevis)
chain: DESQPRKPIPAWASGNLLTQAIRQQYYKPIDVDRMYGTIDSPKLEELFNKSKPRYCKRTSSAVWHSPPL
notes: INCENP, Xenopus laevis, IN-box residues 790-844; synthetic peptide, IN-box residues 845-858 of X. laevis INCENP with Cys in place of Phe845 (scar of the ligation); also called IN-box of [Aurora B/IN-box]^loop-P; IN-box^Phe845Cys; source: IN-box^ΔC (E. coli, purified, C-terminal thioester) ligated with a synthetic peptide; purified (Superdex S200, Ni column); not shown: 6xHis, C-terminal, kept
